Test results taken from article PMC11272076 (Journal of Experimental Botany, 2024).
Numbering of substitutions follows the chain as printed.

B1: myosin VIII-A neck region (residues 828–930), NLuc fusion (domain or fragment)
chain: RNRTLHGILRLQSYFRGHQARCRLKELKTGITILQSFVRGEKMRKEYTELLQRHRASAAIQSHVKRRIASQQYKATVDASAVIQSAIRGELVRRCAGDIGWLS
B2: myosin ATM1 neck region (residues 848–943), NLuc fusion (domain or fragment)
chain: RTLHGILRVQSSFRGYQARCLLKELKRGISILQSFVRGEKIRKEFAELRRRHKAAATIQSQVKSKIARIQYKGIADASVVIQSAIRGWLVRRCSGD
B3: myosin ATM2 neck region (residues 878–967), NLuc fusion (domain or fragment)
chain: RKKVLQGIVGLQKHFRGHLSRAYFQNMRKVTLVLQSYIRGENARRLFDTEAKFHADSVSEASTDELSAVIHLQSAVRGWLARKHFNSMQR

Key:
dansylated CML13 = target: T1, dansylated CML13 (Arabidopsis thaliana, UniProt Q94AZ4 1-148, covalent dansyl label (site not stated)); assay: steady-state dansyl fluorescence spectroscopy
T1 sequence: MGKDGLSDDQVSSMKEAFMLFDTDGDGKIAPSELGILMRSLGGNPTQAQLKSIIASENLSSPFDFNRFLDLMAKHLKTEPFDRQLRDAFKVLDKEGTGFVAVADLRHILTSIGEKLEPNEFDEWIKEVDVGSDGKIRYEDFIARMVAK

dansylated CaM = dansylated CaM (petunia, UniProt P62199 1-149, covalent dansyl label (site not stated)); assay: steady-state dansyl fluorescence spectroscopy
dansylated CML14 = target: T2, dansylated CML14 (Arabidopsis thaliana, UniProt Q8VZ50 1-148, covalent dansyl label (site not stated)); assay: steady-state dansyl fluorescence spectroscopy
T2 sequence: T1 sequence with G2S, D8N, Q47E, A48S, A55T, S56T, E117Q, N119S

CLuc–CML14 = target: T3, CLuc–CML14 (Arabidopsis thaliana, UniProt Q8VZ50 1-148); assay: split reporter
T3 sequence: T1 sequence with G2S, D8N, Q47E, A48S, A55T, S56T, E117Q, N119S

CLuc–CML24 = target: T4, CLuc–CML24 (Arabidopsis thaliana, UniProt P25070 1-161); assay: split reporter
T4 sequence: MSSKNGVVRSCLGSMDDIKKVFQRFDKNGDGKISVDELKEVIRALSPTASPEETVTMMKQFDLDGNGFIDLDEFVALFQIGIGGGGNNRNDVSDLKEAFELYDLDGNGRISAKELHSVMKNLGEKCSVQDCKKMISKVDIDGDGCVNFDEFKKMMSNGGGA

CLuc–CML13 = target: T5, CLuc–CML13 (Arabidopsis thaliana, UniProt Q94AZ4 1-148); assay: split reporter
T5 sequence: T1 sequence

Row | Binder | binding result (dansylated CML13) | binding result (dansylated CaM) | binding result (dansylated CML14) | fold signal above the CML42 control (CLuc–CML14) | fold signal above background (CML42 control) (CLuc–CML24) | fold signal above the CML42 control (CLuc–CML13)
1 | LHGILRVQSSFRGYQARCLLKEL [ATM1-IQ1 synthetic peptide] | binds | binds | binds | – | – | –
2 | B1 | – | – | – | ~200 fold | ~2 fold | ~200 fold
3 | B2 | – | – | – | ~35 fold | ~2 fold | ~35 fold
4 | B3 | – | – | – | – | ~2 fold | –
5 | LQGIVGLQKHFRGHLSRAYFQNM [ATM2-IQ1 synthetic peptide] | – | binds | – | – | – | –
